Experimental data reported in the domain aggregation screens of Martell et al. (2025).

Test: soluble fraction after stress (log2 fold change); higher = more stays soluble; pooled small domains, quantitative proteomics
Details: stress: 50 degC
How it was run: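 The measure of aggregation propensity here is the base-two logarithm of the fold change in the soluble amount of each protein after stress. A higher value means more of that protein stays in solution. Stress was applied at 50°C to pooled libraries of small protein domains, read out by high-throughput quantitative proteomics.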

Sequence	soluble fraction (log2)
HMPLAQRFGLTVAQARVLDLLAEGRSNRQIGELLGLTEGTVKIHVSAIMKAMGVSNRAEAALMANRKR	-0.717
HMENVALYIRLKSMASVYDDVHGYNIEWIKSMIGLSIDIEKLRTVLEDVSWITKVEEDVYSFSKNAKPFE	-4.31
HMFPQQGEIRQGVIASITPDQILVNVGTKSEGIISGKELEAISKSERDSLNVDQKIAVYILDPEDSNG	0.259
HMMKLSKRQEQIIAVVKEHQPVSGERISDILAVSRATLRSDLSFLTLSGILKASPKVGYTYES	-1.12
HMGEQYYVLIDNKQNGPHNINAIQKMIDQNIVNRQTLIWKKGMTDWGNIMDDKDLKEMVNKIP	-0.0562
HMETIHEMVNRLSSEGFIKNEDGIWYLRDRRGDGTKWLKNPFFESTGEKDAFALIDHLKVNDELLSKLRK	-0.3
HMALHLPTTTINGRQYYYFKSKEKITVYGLSKRLGLTRQEIVEHNPSAVDGIKRGSTLYFPVDEFAD	-2.09
HMGAYIPSYAPVDINAATHTVVRGDTVYNISKRYHVSQEDFRAWNGMADNTLSIGQVVKVKPAGYTAPK	-0.087
HMRDTAKTLLAMEVVGENNKKNLQAFGIQKGDQNYQTAVVVRLMQKALMEGDTSAIRLIGELTGD	-0.197
HMRRGKLGMASRLEQIPGIGPKKRKALLKAFGNSIDAIKSAPVEDLMKVKGINLVLAESIKEL	0.0167
HMNETLKQIRINALQYSEKDMATKLGLPLSEYKEIENDKPLNFTLLIRLSQAVGKTIDDLLNAQ	0.0115
HMSSPEAAEVQRLLKDGQHVQALKIIDESLARNPKDPQMRFRRGVALSMLDRKNEALAVFQKLVED	-0.043
HMTQDFEPGGQVFSRGEWLTIIRVNKSNGAVSSVTTPNYSFLGYSGTMKVTPDRITDYKAPSAEEAAVAS	-0.281
HMTIKNHIDEILKKEPFILENIKNGLINISALARQIEPQLSRKVGKKLNVNAIIMTIKRMEIDQLNK	-0.989
HMKKVSVKPILELRAAGISMRKIETLMHVSRHTISAIYKAADAYSISWDNVKDFDEDKIYEMLFPPTP	-1.94
HMTAPQAQDYARVPDVLGLDMRESAQALRLDGFEMNAQGDGLAARQSPIGGSYAPEGTQVLVTFEM	0.102
HMTKQEYLNQLKNELVKQGVADAEDVVTEYEQHFAFKLADGFGEEEIAKKLGDPAAIASQFVG	0.293
HMVPPELEFLQSLMKIEDISELTAAIENNRDAVTDDFKEMLETVIENISGAPDTDPKLLERLKTIRTVLA	0.0197
HMEDMMKALLDVVRAQHTATEGSEERPFDINDIIDMALNITGRPEEPEEQQELSDTIQKLAESLAPDIFP	-0.356
HMASDLPTVTIMGKTFYTYVAKKGESFFGIANRFGWDPELLVKTNRELETPLDKGALIYYPVPKKPK	-0.199
HMSDTGQELHDALNMARRTLTILEEQAAGYTALTIPARLVLELEEKRKDVVRLETQIRSAATGTPG	-0.202
HMQTPVTVGDTMPNLIGTPKRLLLELLNRTDITVKLTGDGYVTAQSPAAGTPIAKGMIIELSL	-0.296
HMKKVIEFKDVSFAFEKKPILQDFNLLVQNKDRIGIVGDNGVGKSTLLNLIAERLQPQSGQVII	0.00568

Sequence	soluble fraction (log2)
HMGLNPSILVKLGNANIKTIDNLADLASDELKEILEDISITSKEADEIIMRARSSWFEEDDKKEDNI	0.0789
HMDDVYMVPVKDIAINDLKQEFEKLGIPNIQNTIPDKDLNFFIVRKDDLALVNYAIEKTMER	-0.0369
HMAVSSHAVKQRIRSLIQAEDPAAPLSDEALRLALSALGVDVSRRVIAKYRAELNIPSSSQRKK	0.045
HMLLSTHVVVAKEDVQIGTRLQPAMLQVVDWPSASPLKNPLTSIEQATDRVVNMPLVKGEPISMSKLAAKG	0.00241
HMNDYIGVDRAKEIALNHARMNESDVQFAKAKLENDDGVVEYEIEFYFGRTEYDYTIDAVSGNIIEYDVEY	-1.05
HMEGTEILVNIRKGMTKEEIASLLVSKGLVEDKNTFLVQTALYTSDRYPIQPGSYTLNTAQTPEEMLAVMT	0.0128
HMNLTLMDALKAAGLPVDGINLSMVNKMMEEQMPIDKTSLNQMYQLVQDNKDINVTTLVELKRLG	-0.0277
HMKNETFAITSEDAGKRLDVWLTNILGDYSRSYVERLVEQGNVTVGGKTVKAGYKLKAGDSVQVSIPGPK	0.138
HMAVPTHVEFPVVGLQRSGITSLEQAIATVPGVSKAVVNVSDNRIFVDYDPTRSKVSDLLEVVRGAGFTP	-0.000584
HMQQAVTMQKPGRLLRNADGNGGAVRDLDVGMMLYPTGNRSELMWEVDDELGNRGWVNSTLFGLS	-0.109
HMSVADNALSRQAIESRIALFIQNEDPNHPRSDADIQKELAQAGVVISRRAITKYRNHLHIPSASLRRR	-1.03
HMGEPVASSREVAKRFGKEHKHVLAAIRQILVAENSATKFFHETAFEYRGQRFPEYLMNRDGFALLAMGF	-3.1
HMPLLSEWDAALEELWAKLGDVPMDPETERMDAPFLGFPAGTPREDIWHWFDERHSKGVAHLLYG	-2.37
HMQNAMQKELIDAFQKAYPDLDITKIELVYGTYYEVEAMNSTTEFTYRYDQNSKTFILAEQDNADP	-0.202
HMSRYLLPYAFARTQQVLLEEKSGELTLWMHSGSNLGGISEVTRKYAVQHVTHEPMDALLNRISSAYAN	-3.41
HMSVSEAELAEKYHADDLEALKSGKLHEFQENLIDRNGKKYTVQTMKDILTLSDGTRLLLGIGLD	0.174
HMSFPFLMPNLEGLQLDQVRVILEENGLEIGQENYQPDSKFGPGTIINHQPSVDTVVQTGQKVNLQISGTD	0.112
HMTSVRVPVKKEIWFWAIKESQRDLNEILARFPKMDKWINQEENPTFNQLEKVAKFLRVPFGYMFLDKPPK	-0.931
HMSKLSVSSLSSPEVQNQLKAAGIDVNSRQYQVVMKDMMGALDGRAGYTTVSAIKNRMRQYNADGDY	0.474
HMAADLIGLEARVTLPLTEDQRGFIETSVRGSLVRRAALSASGRLDRGQRVVILRSEGTTLIVDAL	-0.844
HMLRNDEAVMLGRRLLNKHLQAFSVQIKDISHQRIHDLLDELELESLDHLLDDIGLGNRSVFLVAQKLLQ	-1.39
HMGKLGENIKRIREGMGLSQRQFGELIGKSDSQIWSYENDRTDILASTLYKIAAVANVDFNNLMAGIIP	-0.925
HMEELIIQEELANKRLDIAISLLFPELTRAHAQKLIKEGSVLVDGKPRKASYPLTAGKRLSVTLPEPE	0.05

Sequence	soluble fraction (log2)
HMAGTRVWSENGQLYVTAAVSGRANVYNVLGKLNRSLTFSAGETKSVSVPAGIYVVSLNNGKAYKVAV	-1.67
HMSLTGFYNLTFKQADRLSVIDEAGEEVYKQAIAMGSTTKTIDLSALNAGVYFIRIYNGEVIAQEKIVLN	-1.25
HMAFRLPNGYGTIRRLTGNRRKPYVALVNPTQVFDDEKGTSHYKYDLLGTFAEKIDAYNAVMQYHKSPGGL	-1.35
HMLVLAENMDVIFTRRTLDDHVVVDYKTTIGEMVKNDEIKGENMDELISAVEKDGYELVSSTSGEIIFLND	-1.2
HMTGESVPAPLSGTIFKILVAPGEQVEEGQTVIILEAMKMETEISAPRSGVVGAINIKEGDSVQVGQSLFT	0.0706
HMAPEKLVHELVGLSLRAGNLDLLAATLSAHKTVLSKESTAEYVKAGLAIEPNHLPLRVLAEQDLGWS	-0.57
HMSVFTDIYHQADHETKLMLIHEIKIVGDEKEFRLLKSIIDSTSNDLSKEANDALNAIKIRLALSK	-2.49
HMKIEDSNTIKLKANQAYKTHYYSEAIKLYDELLTKYEPNSEAIKLNLAHAHFKAKGFAAASKLYT	0.144
HMQTNEAIINQAVQAAEAQNITTRSQAVDALKANGMTEAQARQLAVQRGISYDQLINELFPME	-0.0275
HMSEITQTLSMIGKEVTLEIPDEKDKTKTTEVKGIVTEASFKDGTGKVKVNGEYYSIAYITSIRDT	0.335
HMKTGAKLKNLRKMKKLSQEEVAKVLNLSYSTLSRWENDTRIPTYEDLFKLGQFYGVSVDYLSDPN	-0.359
HMNMSVVEKVIQQISNPGRDSLIPILQAVQEEEGFISRESVIEIGKALDLPASKIYGVATFYNQFR	-0.338
HMGGELLSLRRIGTLTGISYPTLLRYVARYGEQIPQTGTGRSRRFPPAAVPVFQELRATRGRAPRATA	-0.063
HMDDEAVQIMTLHISKGLEFDVVFALGLVSRTPESKEIEELEAEKQRQLYVAMTRAEKWLIVAA	-0.12
HMIMVAGHLQIKKGKYYMVLELKSESGERKTKWISTGLSAKGNKRKAEAMLEEARENYQSTDA	-0.899
HMDNIPAHIKAKIINYVNRNYPGAIIKDIERKSNGRYEAEIVYNNREYDLLFDAQGNFISASLDDK	0.123
HMKVQEMTANSFLTQWEAGNVKTLDILPEGIIKGELNDGTKFQLYYSSAAGLIDDVKKNPEKFANTTVSEK	0.129
HMPKAKASARNDTRTRLLTIGTEVLSQKGFASTGVEEILSVAGVPKGAFYYYFESKAAFGLAVIENYE	0.0027
HMEHIVNELDRKVIDYLQSHYDAKLNDIAQGIGVSKATATKSIRKLVQTGIVHVVGSSGTGTSYNLTE	-0.152
HMLISYRVDALANEAGLSVDTIRYYQKLGILDPPKRTGRHSEYSPDHLERLIEIRRLADAGLTLSQISEI	-2.46
HMSLPTYVQISEAIARRITAGQWLDGERLPPERTMAAEFGVAVGTLRKALSRLQDQKLLRRLQGSGNYINI	-1.57
HMNKRKQRINDLMDLIREQPALSIKNLAEMLNVSEMTIRRDMAYLKSNNLLNRAHGMNFLNS	0.0812
HMVVADFQNYTVKPKENLYSLTKTSGLSQEELVALNPELKNGVQEGMVIKLPAAVKLMAQPE	0.15
